Assay [1] concerns the target IVIg (Octagam), pool of human IgG (human). In words: cell-based or functional assay.
For assay [2] the target is unchanged. In words: cell-based or functional assay. This is another data set of the same source.

Read-outs that look alike come from different tables or passages of the source.

On to “pCART124 (IdeS control with N terminal methionine and histidine tag) (enzyme)”, for which the 2nd IgG heavy chain scIgG to F(ab')2, Conc. of enzyme (ng/ml), gel in assay [1] was 6000 ng/mL. Moreover, in assay [2], the 1st IgG heavy chain IgG to scIgG, Conc. of enzyme (ng/ml), gel was 1900 ng/mL and the 2nd IgG heavy chain scIgG to F(ab')2, Conc. of enzyme (ng/ml), gel amounted to 7500 ng/mL.

The record behind these values is patent US20250304937A1.
